Binding signal data for 41 molecules are collected here from article PMC11417369, “DNA sequence and chromatin differentiate sequence-specific transcription factor binding in the human malaria parasite Plasmodium falciparum”.

T1: PF3D7_0420300 D1 (Plasmodium falciparum, UniProt Q8I1N6 1956-2015)
T1 sequence: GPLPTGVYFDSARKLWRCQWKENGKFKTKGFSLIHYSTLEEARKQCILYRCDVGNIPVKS

B1: CACACA_negctrl_site1218 (dsDNA)
DNA 1: TAATTTTTTTTTTTTTTTTTTTTTTTTTTTTTTTTA
DNA 2: TAAAAAAAAAAAAAAAAAAAAAAAAAAAAAAAATTA
B2: CACACA_site2783 (dsDNA)
DNA 1: TATGAAAGAAATAGTACACACATAAACATTTGTAAA
DNA 2: TTTACAAATGTTTATGTGTGTACTATTTCTTTCATA
B3: CACACA_site4200 (dsDNA)
DNA 1: TGTCCCCCTTTCTATGCACACTTTAAATTATTCAAA
DNA 2: TTTGAATAATTTAAAGTGTGCATAGAAAGGGGGACA
B4: CACACA_site6753 (dsDNA)
DNA 1: GAAGTAATTTCATATACACACATATACATACATACA
DNA 2: TGTATGTATGTATATGTGTGTATATGAAATTACTTC
B5: CACACA_negctrl_site29 (dsDNA)
DNA 1: TTTTTTTTTTTTTTTTTTTTTTTGCTCAGTGTGGTA
DNA 2: TACCACACTGAGCAAAAAAAAAAAAAAAAAAAAAAA
B6: CACACA_site5336 (dsDNA)
DNA 1: TATAATAATAAAAACACACACGTTGATTGTATTAGC
DNA 2: GCTAATACAATCAACGTGTGTGTTTTTATTATTATA
B7: CACACA_site6811 (dsDNA)
DNA 1: CATATAAAGATATGAACACACAAAAAGAATATTTCC
DNA 2: GGAAATATTCTTTTTGTGTGTTCATATCTTTATATG
B8: CACACA_site632 (dsDNA)
DNA 1: ATATAATATTAGTGCACACACAAAAATGTACTAAAC
DNA 2: GTTTAGTACATTTTTGTGTGTGCACTAATATTATAT
B9: CACACA_negctrl_site1405 (dsDNA)
DNA 1: ATGAAAAAAAAAAAAAAAAAAAAAAAAAAAAAAAAA
DNA 2: TTTTTTTTTTTTTTTTTTTTTTTTTTTTTTTTTCAT
B10: CACACA_site8811 (dsDNA)
DNA 1: TTAAAAATATATATAACACACACATAATATATATAT
DNA 2: ATATATATATTATGTGTGTGTTATATATATTTTTAA
B11: CACACA_negctrl_site1119 (dsDNA)
DNA 1: ATTTTTTTTTTTTTTTTTTTTTTTTGGAGAAAGAGA
DNA 2: TCTCTTTCTCCAAAAAAAAAAAAAAAAAAAAAAAAT
B12: CACACA_negctrl_site412 (dsDNA)
DNA 1: ATAAAAAGGTTTAAAAAAAAAAAAAAAAAAAAAAAA
DNA 2: TTTTTTTTTTTTTTTTTTTTTTTTAAACCTTTTTAT
B13: CACACA_negctrl_site1638 (dsDNA)
DNA 1: ACATGTATACTTTTTACGAAAAAAAAAAAAAAAAAA
DNA 2: TTTTTTTTTTTTTTTTTTCGTAAAAAGTATACATGT
B14: CACACA_site2206 (dsDNA)
DNA 1: AAAAAAAACACGCGCACACACACACCCACCCACCGA
DNA 2: TCGGTGGGTGGGTGTGTGTGTGCGCGTGTTTTTTTT
B15: CACACA_site4748 (dsDNA)
DNA 1: GCCTTTTAGTATTTCACACACGTAAATGAGTATATC
DNA 2: GATATACTCATTTACGTGTGTGAAATACTAAAAGGC
B16: CACACA_negctrl_site146 (dsDNA)
DNA 1: TTTATAAAAAATTTTTTTTTTTTTTTTTAAATATAT
DNA 2: ATATATTTAAAAAAAAAAAAAAAAATTTTTTATAAA
B17: CACACA_negctrl_site896 (dsDNA)
DNA 1: TGATTAAAAGAGGGAAAAAAAAAAAAAAAAAAAAAA
DNA 2: TTTTTTTTTTTTTTTTTTTTTTCCCTCTTTTAATCA
B18: CACACA_negctrl_site558 (dsDNA)
DNA 1: TTTTTTATATTAAATGAAGAATATACAAAATTTTAA
DNA 2: TTAAAATTTTGTATATTCTTCATTTAATATAAAAAA
B19: CACACA_site4569 (dsDNA)
DNA 1: TTGCCCATTTCATTAACACACAAATGTTTATATTCT
DNA 2: AGAATATAAACATTTGTGTGTTAATGAAATGGGCAA
B20: CACACA_site5088 (dsDNA)
DNA 1: CCAACATAGAGGGGCACACACATATATACCTAAAAA
DNA 2: TTTTTAGGTATATATGTGTGTGCCCCTCTATGTTGG
B21: CACACA_negctrl_site1137 (dsDNA)
DNA 1: ATTATAAAAGAATTTTTTTTTATTTCATTAAAATAT
DNA 2: ATATTTTAATGAAATAAAAAAAAATTCTTTTATAAT
B22: CACACA_site8696 (dsDNA)
DNA 1: TGGGAAAAAATATATGCACACCCCCCAAAAAAAAAA
DNA 2: TTTTTTTTTTGGGGGGTGTGCATATATTTTTTCCCA
B23: CACACA_site6075 (dsDNA)
DNA 1: AATAAATAAGCACATACACACATACATACATACATA
DNA 2: TATGTATGTATGTATGTGTGTATGTGCTTATTTATT
B24: CACACA_negctrl_site1508 (dsDNA)
DNA 1: TTTTACTCTTAAAATAATAAAAAATATTCACATTTA
DNA 2: TAAATGTGAATATTTTTTATTATTTTAAGAGTAAAA
B25: CACACA_site8226 (dsDNA)
DNA 1: TGATAACCTAATAATACACACACATGAATATATATA
DNA 2: TATATATATTCATGTGTGTGTATTATTAGGTTATCA
B26: CACACA_site4181 (dsDNA)
DNA 1: GGATATATTTTATGTACACACACATATAAGGGATTA
DNA 2: TAATCCCTTATATGTGTGTGTACATAAAATATATCC
B27: CACACA_site1373 (dsDNA)
DNA 1: TACAAAATATATATGACACACATAAAAAAAAGTATA
DNA 2: TATACTTTTTTTTATGTGTGTCATATATATTTTGTA
B28: CACACA_negctrl_site1541 (dsDNA)
DNA 1: TGCTAATAATTATTTGTTTAGCAACAAAAAAAAAAA
DNA 2: TTTTTTTTTTTGTTGCTAAACAAATAATTATTAGCA
B29: CACACA_site9117 (dsDNA)
DNA 1: AAAAAAAAAAAAAAAACACACATACACCCCCACCCA
DNA 2: TGGGTGGGGGTGTATGTGTGTTTTTTTTTTTTTTTT
B30: CACACA_site6664 (dsDNA)
DNA 1: CATATATTTTGAAACACACACATATAAAATATACAT
DNA 2: ATGTATATTTTATATGTGTGTGTTTCAAAATATATG
B31: CACACA_site8720 (dsDNA)
DNA 1: TATGTATTAAATTTTACACACATGATTCTCTATATG
DNA 2: CATATAGAGAATCATGTGTGTAAAATTTAATACATA
B32: CACACA_site2584 (dsDNA)
DNA 1: ATTGCTTTTCTTTTTGCACACTTATGCATATATATA
DNA 2: TATATATATGCATAAGTGTGCAAAAAGAAAAGCAAT
B33: CACACA_site9348 (dsDNA)
DNA 1: TATATTTTGTTCTTTCCACACACAAATACATATATT
DNA 2: AATATATGTATTTGTGTGTGGAAAGAACAAAATATA
B34: CACACA_site76 (dsDNA)
DNA 1: GGCAGCAATTTAGTTACACACATATATAGGTATACA
DNA 2: TGTATACCTATATATGTGTGTAACTAAATTGCTGCC
B35: CACACA_negctrl_site1078 (dsDNA)
DNA 1: TAAATTCTTTAAAACTTTAAAACAAAAAAAAAAAAA
DNA 2: TTTTTTTTTTTTTGTTTTAAAGTTTTAAAGAATTTA
B36: CACACA_site6737 (dsDNA)
DNA 1: TAAAAAATAAAATACACACACATATTTATATTTATA
DNA 2: TATAAATATAAATATGTGTGTGTATTTTATTTTTTA
B37: CACACA_negctrl_site1559 (dsDNA)
DNA 1: ATATTAAAATGAAAATATAAAAAAAAAAAAAAAAAA
DNA 2: TTTTTTTTTTTTTTTTTTATATTTTCATTTTAATAT
B38: CACACA_site478 (dsDNA)
DNA 1: AAAAAAAAAAAAAAAACACACAAATCATAAATAAAT
DNA 2: ATTTATTTATGATTTGTGTGTTTTTTTTTTTTTTTT
B39: CACACA_site4699 (dsDNA)
DNA 1: AAACAGAAGACATATACACACATACAAAAAAGTGCA
DNA 2: TGCACTTTTTTGTATGTGTGTATATGTCTTCTGTTT
B40: CACACA_negctrl_site916 (dsDNA)
DNA 1: TTTTTAAATAACCTATATATTATTATGAAACATAAA
DNA 2: TTTATGTTTCATAATAATATATAGGTTATTTAAAAA
B41: CACACA_site2222 (dsDNA)
DNA 1: GGAAAAAATATATGCACACCCCCCAAAAAAAAAAAA
DNA 2: TTTTTTTTTTTTGGGGGGTGTGCATATATTTTTTCC

For this data set, the target named is T1, PF3D7_0420300 D1. The data set can be described thus: gcPBM; about 25 ug protein; PBS, 1% milk, 0.2 mg/ml BSA, salmon testes DNA, 0.03% Triton X-100. The settings on record: tags: N-terminal GST (pGEX-4T-1), kept; label: surface-attached array probe.
On to B1, for which the binding signal is 8.72 ln median PBM intensity, better of two orientations.

With B2, the binding signal was 9.73 ln median PBM intensity, better of two orientations.

With B3, the binding signal was 9.68 ln median PBM intensity, better of two orientations.

For the molecule B4, the binding signal was 9.62 ln median PBM intensity, better of two orientations.

Consider B5, for which the binding signal is 8.55 ln median PBM intensity, better of two orientations.

Turning to B6, the binding signal is 9.66 ln median PBM intensity, better of two orientations.

With B7, the binding signal was 9.72 ln median PBM intensity, better of two orientations.

Turning to B8, the binding signal is 9.79 ln median PBM intensity, better of two orientations.

For B9, the binding signal was 8.53 ln median PBM intensity, better of two orientations.

Regarding B10, the binding signal is 9.8 ln median PBM intensity, better of two orientations.

With B11, the binding signal was 8.63 ln median PBM intensity, better of two orientations.

B12: the binding signal was 8.38 ln median PBM intensity, better of two orientations.

As for B13, the binding signal is 8.58 ln median PBM intensity, better of two orientations.

On to B14, for which the binding signal is 10.7 ln median PBM intensity, better of two orientations.

On to B15, for which the binding signal is 9.63 ln median PBM intensity, better of two orientations.

Consider B16, for which the binding signal was 8.66 ln median PBM intensity, better of two orientations.

With B17, the binding signal was 8.33 ln median PBM intensity, better of two orientations.

Regarding B18, the binding signal was 8.73 ln median PBM intensity, better of two orientations.

B19: the binding signal is 9.7 ln median PBM intensity, better of two orientations.

B20: the binding signal was 9.64 ln median PBM intensity, better of two orientations.

Take B21: the binding signal is 8.74 ln median PBM intensity, better of two orientations.

On to B22, for which the binding signal is 10.7 ln median PBM intensity, better of two orientations.

For B23, the binding signal is 9.71 ln median PBM intensity, better of two orientations.

Take B24: the binding signal is 8.65 ln median PBM intensity, better of two orientations.

In the case of B25, the binding signal was 9.76 ln median PBM intensity, better of two orientations.

As to B26, the binding signal was 9.74 ln median PBM intensity, better of two orientations.

Regarding B27, the binding signal is 9.69 ln median PBM intensity, better of two orientations.

As for B28, the binding signal is 8.69 ln median PBM intensity, better of two orientations.

With B29, the binding signal is 10.7 ln median PBM intensity, better of two orientations.

For B30, the binding signal was 9.81 ln median PBM intensity, better of two orientations.

For B31, the binding signal is 9.65 ln median PBM intensity, better of two orientations.

Consider B32, for which the binding signal is 9.72 ln median PBM intensity, better of two orientations.

In the case of B33, the binding signal is 9.82 ln median PBM intensity, better of two orientations.

For the molecule B34, the binding signal is 9.67 ln median PBM intensity, better of two orientations.

For B35, the binding signal was 8.74 ln median PBM intensity, better of two orientations.

In the case of B36, the binding signal is 9.78 ln median PBM intensity, better of two orientations.

Turning to B37, the binding signal is 8.43 ln median PBM intensity, better of two orientations.

Take B38: the binding signal was 9.63 ln median PBM intensity, better of two orientations.

Consider B39, for which the binding signal is 9.75 ln median PBM intensity, better of two orientations.

For the molecule B40, the binding signal is 8.75 ln median PBM intensity, better of two orientations.

As to B41, the binding signal is 10.7 ln median PBM intensity, better of two orientations.
